Test results: article PMC7407374, “Addressing the Molecular Mechanism of Longitudinal Lamin Assembly Using Chimeric Fusions” (Cells, 2020)

B1: LA 22-70-Eb1 (domain or fragment, UniProt P02545 22-70, looked up)
chain: SPTRITRLQEKEDLQELNDRLAVYIDRVRSLETENAGLRLRITESEEVVDFYFGKLRNIELICQENEGENDPVLQRIVDILYATDE
notes: human lamin A, residues 22-70: truncated head domain, coil1A and the first three residues of linker L1; also called N-terminal fragment; N-terminal construct; source: E. coli Rosetta 2 (DE3) pLysS, purified (Ni column, tag cleavage, second Ni column, SEC); not shown: His6, N-terminal, cleaved; SUMO, N-terminal, cleaved
B2: LA 17-70-Eb1 (domain or fragment, UniProt P02545 17-70, looked up)
chain: SSTPLSPTRITRLQEKEDLQELNDRLAVYIDRVRSLETENAGLRLRITESEEVVDFYFGKLRNIELICQENEGENDPVLQRIVDILYATDE
notes: human lamin A, residues 17-70: truncated head domain, coil1A and the first three residues of linker L1; also called N-terminal fragment; N-terminal construct; source: E. coli Rosetta 2 (DE3) pLysS, purified (Ni column, tag cleavage, second Ni column, SEC); not shown: His6, N-terminal, cleaved; SUMO, N-terminal, cleaved

Key:
[1] = biological target: Gp7_(F40C)-LA 327-403 (bacteriophage φ29 | human) (UniProt P13848); assay: SEC-MALS; inline MALS (Dawn Heleos) on Superdex 200 Increase 10/300 GL at 20 °C; individual proteins and 1:1 mixtures; 150 mM NaCl with 10 mM Hepes pH 7.5 or 10 mM TEA pH 7.0
[2] = biological target: the molecule itself; assay: as above

Row | Molecule | stoichiometry N [1] | stoichiometry N [2]
1 | Gp7_(F40C)-LA 327-403 (from UniProt P13848 1-49; P02545 327-403) (domain or fragment) | 2 | 
2 | B1 |  | 2
3 | B2 |  | 2
